Data reported in US11820827B2, “Methods of treating myelodysplastic syndrome and acute myeloid leukemia with nonfucosylated anti-CD70 antibodies” (Seagen Inc., priority 2019, dated 2023).

Assays:
[1] = system: NOMO-1 CD70+ AML cell line; assay: CDC with normal human serum, NOMO-1; type: cell-based; settings: normal human serum not heat inactivated
Protocol: (§1) AML cell lines positive for CD70 were fluorescently labeled and treated with increasing concentrations of CD70 directed antibodies. Cells were then exposed to human compliment and lysis determined as release of fluorescent dye.
(§2) The following protocol was used to assess CDC activity on AML cell lines: • 1. Cells were incubated with […] anti-CRP monoclonal antibodies mix (anti-hCD46, anti-hCD55, anti-hCD59) for 30 minutes on ice. • 2. Cells were washed and plated (200,000 cells/well) in media containing non-heat-inactivated serum, Sytox Green (Life technology), and antibodies, which were added at the indicated final concentration, for 2 hours at 37° C. • 3. Cell dead was quantified by detecting Sitox Green fluorescent signal on an Envison plate reader (Perkin Elmer) and normalized over positive control (1% Triton X-100 treated cells).

[2] = molecular target: T1, hFcγRIIIa V158 (Homo sapiens, UniProt P08637, F176V); assay: BLI binding kinetics to high affinity FcγRIIIa (158V) receptor variant; settings: versus SGN-70
T1 construct: made in house

[3] = system: FcγRIIIa (F/F low affinity and V/V high affinity alleles); assay: BLI binding affinity to FcγRIIIa (low and high affinity alleles); design: species or system human; settings: compared with SGN-70
Excerpt: Parameters are listed Table 1. Biotinylated avi-tagged human FcγR-monomeric Fc N297A LALA-PG and Fc receptor neonatal (FcRN) monomeric Fc N297A IHH fusion proteins (designed and expressed at Seattle Genetics) were loaded onto high precision streptavidin biosensors (ForteBio) to responses between 0.3 to 1 nm following a 100 second sensor check in Buffer A (0.1% bovine serum albumin [BSA], 0.02% Tween20, 1× phosphate-buffered saline [PBS] pH 7.4). After another baseline measurement, titrated antibodies were associated for 600, 10, 100, 50, and 10 seconds and dissociated for 1000, 50, 100, 500, and 50 seconds in Buffer B (1% casein, 0.2% Tween20, 1×PBS pH 7.4) for FcγRI, IIa, IIIa, FcRN pH 6, and FcRN pH 7.4, respectively. Prior to analysis, the references were subtracted in each assay. All the sensorgrams were processed with a Y-axis alignment at the start of association and an inter-step dissociation correction. A 1:1 Langmuir isotherm global fit model was used to fit the curves.

[4] = system: T regulatory cells (Treg) in PBMCs; assay: Treg depletion in PBMCs; type: cell-based, human; settings: 24 hours
Protocol: At the end of the experiment cells were stained with Zombie Aqua Viability Dye and total viable Treg naïve and memory CD4 and CD8 T cell numbers were assessed. […] Fucosylated (WT Clone 13 IgG1) and nonfucosylated (SEA Clone 13 IgG1) antibodies targeting TIGIT were used as positive controls (FIG. 4E-4H).

[5] = system: MOLM-13 CD70+ AML cell line; assay: CDC with normal human serum, MOLM-13; type: cell-based; settings: normal human serum not heat inactivated
Protocol: as §1, §2

[6] = system: MV4-11 AML xenograft; assay: Tumor growth in the MV4-11 AML xenograft model, SEA-CD70 and azacitidine (Example 10); type: in vivo, SCID mice
[7] = system: MOLM-13 CD70+ target cells; assay: ADCP with monocyte-derived macrophages, MOLM-13; type: cell-based, human; settings: flow cytometry, antibody dose-dependent
Protocol: (§3) Phagocytosis of fluorescently labeled target cells was determined by flow cytometry. Phagocytosis was measured for the appearance of double-labeled coincident events (fluorescent target cells) and anti-CD11c positivity to identify monocyte/macrophages.
(§4) The following protocol was used to assess […] activity on AML cell lines: • 1. Target cells were labeled using the PKH26 Red Fluorescent Cell Linker Mini Kit (Sigma Aldrich) and following the manufacturer's instructions. • 2. Cells (4000 cells/well) were incubated with the indicated test articles for 30 minutes, washed and resuspended in RPMI plus 10% ultra-low IgG FBS. • 3. PBMC-derived macrophages (100,000 cells/well), generated by incubating PBMC-derived monocytes with 500 U/mL (50 ng/mL) GM-CSF for 10-12 days, were added to the target cells and incubated at 37° C. for 2 hours. • 4. Plates were centrifuged and cells resuspended in 100 μl of APC-CD11 antibody (macrophage marker) and incubated on ice for 30 minutes. • 5. Cells were washed, resuspended in PBS and analyzed by flow cytometry to determine the percentage of phagocytosis

[8] = system: NOMO-1 CD70+ target cells; assay: ADCP with monocyte-derived macrophages, NOMO-1; type: cell-based, human; settings: flow cytometry, antibody dose-dependent
Protocol: as §3, §4

[9] = molecular target: T2, high affinity human FcγRIIIa receptor (158V) (Homo sapiens, UniProt P08637, F176V); assay: CHO-FcγRIIIa binding assay by flow cytometry (human receptor); settings: compared with SGN-70
T2 construct: expressed in transfected cells; host or cells: CHO
Protocol: While BLI methodology is used to assess receptor affinity by monitoring binding kinetics, it is primarily set to monitor monovalent binding. To add to BLI data sets, flow cytometry was also performed (FIGS. 2A and 2B).
The CHO-FcγRIIIa binding assay was conducted as follows: • 1. Thaw cells: Cells were thawed on 11 Jun. 2019, and cultured in culture medium for 1 week to recover from freeze-thaw.
• 2. Wash: 60 million cells were washed 1× in PBS in 50-mL tubes. Cells were counted again and resuspended at 2.2×10^6/mL. Then 0.1 mL was pipetted per well • 3. Make 10× dilutions of antibody: The 10× dilutions were prepared (3 mg/mL, 1 mg/mL, 0.3 mg/mL, 0.1 mg/mL, 0.03 mg/mL, 0.01 mg/mL, 0.003 mg/mL, 0.001 mg/mL, and 0.0003 mg/mL in the dilution plate).
• 4. Aspirate: Wash was aspirated in wells and 100 μL of the corresponding antibody dilutions was pipetted with a multichannel pipet. The corresponding concentrations were 300, 100, 30, 10, 3, 1, […] μg/mL in triplicate. The concentrations were decreased vertically down the 96-well round bottom plate. • 5. […] Analyze samples: Samples were analyzed by flow cytometry in high throughput sampler (HTS) mode on the Attune. Median fluorescence intensity (MFI) was graphed (geomean), and equilibrium dissociation constant (KD) for each was calculated in PRIZM

T2 sequence (P08637 17-254 F176V): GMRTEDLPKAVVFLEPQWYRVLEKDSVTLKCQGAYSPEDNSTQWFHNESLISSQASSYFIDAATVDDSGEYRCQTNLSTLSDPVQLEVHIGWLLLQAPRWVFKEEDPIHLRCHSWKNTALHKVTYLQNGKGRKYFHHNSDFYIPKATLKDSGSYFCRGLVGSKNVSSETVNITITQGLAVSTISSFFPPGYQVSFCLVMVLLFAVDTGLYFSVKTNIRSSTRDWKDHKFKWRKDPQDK
T1 sequence (P08637 17-208 F176V): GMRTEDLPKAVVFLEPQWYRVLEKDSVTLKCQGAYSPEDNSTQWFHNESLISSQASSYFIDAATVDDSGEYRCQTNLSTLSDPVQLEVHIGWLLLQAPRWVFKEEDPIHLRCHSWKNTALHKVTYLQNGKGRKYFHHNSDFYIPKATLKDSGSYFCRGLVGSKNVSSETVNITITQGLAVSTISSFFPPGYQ

B1: SEA-CD70: humanized, nonfucosylated monoclonal IgG1 antibody targeting CD70 (nonfucosylated h1F6) (antibody, chains of the INN, looked up, V domains shown)
VH: QVQLVQSGAEVKKPGASVKVSCKASGYTFTNYGMNWVRQAPGQGLKWMGWINTYTGEPTYADAFKGRVTMTRDTSISTAYMELSRLRSDDTAVYYCARDYGDYGMDYWGQGTTVTVSS
VL: DIVMTQSPDSLAVSLGERATINCRASKSVSTSGYSFMHWYQQKPGQPPKLLIYLASNLESGVPDRFSGSGSGTDFTLTISSLQAEDVAVYYCQHSREVPWTFGQGTKVEIK
modifications: nonfucosylated
- cell lysis by complement fixation [1]: lysed in an antibody-specific, dose-dependent manner
- increase in binding affinity for the FcγRIIIa (158V) receptor [2]: 8 fold
- binding affinity to FcγRIIIA [3]: much higher binding affinity
- T regulatory cell depletion ([4]; donor homozygous for high affinity FcγRIIIa (V/V 158)): did not induce Treg cell depletion
- T regulatory cell depletion ([4]; donor homozygous for low affinity FcγRIIIa (F/F 158)): Neither CD70 targeting antibody induced T regulatory cell depletion
- cell lysis by complement fixation [5]: lysed in an antibody-specific, dose-dependent manner
- effect on tumor growth ([6]; antibody 10 mg/kg Q4dx5, azacitidine 2 mg/kg Q1dx5 for 3 cycles): reduce tumor growth
- delay in tumor growth ([6]; from time to 10× fold change compared to untreated control): 31%
- phagocytosis of antibody-coated target cells by macrophages [7]: readily phagocytosed target cells
- phagocytosis of antibody-coated target cells by macrophages [8]: readily phagocytosed target cells
- binding affinity to human FcγRIIIa on CHO cells [9]: bound with higher affinity than SGN-70
